{"source": "patent US20200207873A1", "about": "(INSERM INSTITUT NATIONAL DE LA SANT ET DE LA RECHERCHE M …, published 2020)", "binders": {"B1": {"name": "full-length amino-terminal 3xHA-tagged pUL56 (wild-type) (other)", "chain": "MEMNLLQKLCVVCSKCNEYAMELECLKYCDPNVLLAESTPFKRNAAAIVYLYRKIYPEVVAQNRTQSSLLTLYLEMLLKALHEDTALLDRALMAYSRQPDRAAFYRTVLRLDRCDRHHTVELQFTDNVRFSVSLATLNDIERFLCKMNYVYGILAPEAGLEVCAQLLELLRRLCGISPVARQEVYVEGTTCAQCYEELTIIPNQGRSLNKRLQGLLCNHIAVHRPSSQSDVNIQTVEQDLLDLTTRIPHLAGVLSALKSLFSSSSAYHSYIQEAEEALREYNLFTDIPERIYSLSDFTYWSRTSEVIVKRVGITIQQLNVYHQLCRALMNGISRHLYGEDVEDIFVLGEKALDGEERMFVGSVFAAPNRIIDLITSLSIQAFEDNPVFNKLHESNEMYTKIKHILEEIRRPLPDGTGGDGPEGEAIHLRGREAMSGTGTTLMTASNSSNSSTHSQRNNGGGGRARGGGKKAVGGGANGQDGDGSENGLRVRNCDEHEALDLVDARSRIHNVTREVNVRKRAYLQKVSEVGYGKVIRCIKTQERLTSKLIDVNLVGPLCLDFISKLMNGFLYRSQYHQDQDVVDVGDQFTYDEHLYVVNNLIHKSLPVESLPLLGQQIYELCNGPLFTHCTDRYPLSHNVDMAYACDNAGVLPHVKDDLVKCAEGTVYPSEWMVVKYMGFFNFSDCQDLNVLQKEMWMHVRELVLSVALYNETFGKQLSIACLRDELHPDRDVILTYNKEWPLLLRHEGNLYKSKDLYLLLYRHLSRPDESGDVPTAPVAKPSTLTAAAAVSGAFREPDRPWLPSPYPSSSTAGVSRRVRATRKRPRRASSLLDLARDEHGIQDLVPGSLR", "notes": "also called 3xHA-pUL56; HA-pUL56; not shown: amino-terminal 3xHA tag"}}, "molecular_target": "T1, full-length His-tagged pUL89 (wild-type) (human cytomegalovirus, AD169 genotype, UniProt P16732 1-674)", "T1 construct": "mature; It was expressed from pCI-neo His-pUL89 in HEK293 cells and purified on Ni resin; also called His-pUL89; 6xHis-pUL89; not shown: 6xHis tag", "T1 sequence": "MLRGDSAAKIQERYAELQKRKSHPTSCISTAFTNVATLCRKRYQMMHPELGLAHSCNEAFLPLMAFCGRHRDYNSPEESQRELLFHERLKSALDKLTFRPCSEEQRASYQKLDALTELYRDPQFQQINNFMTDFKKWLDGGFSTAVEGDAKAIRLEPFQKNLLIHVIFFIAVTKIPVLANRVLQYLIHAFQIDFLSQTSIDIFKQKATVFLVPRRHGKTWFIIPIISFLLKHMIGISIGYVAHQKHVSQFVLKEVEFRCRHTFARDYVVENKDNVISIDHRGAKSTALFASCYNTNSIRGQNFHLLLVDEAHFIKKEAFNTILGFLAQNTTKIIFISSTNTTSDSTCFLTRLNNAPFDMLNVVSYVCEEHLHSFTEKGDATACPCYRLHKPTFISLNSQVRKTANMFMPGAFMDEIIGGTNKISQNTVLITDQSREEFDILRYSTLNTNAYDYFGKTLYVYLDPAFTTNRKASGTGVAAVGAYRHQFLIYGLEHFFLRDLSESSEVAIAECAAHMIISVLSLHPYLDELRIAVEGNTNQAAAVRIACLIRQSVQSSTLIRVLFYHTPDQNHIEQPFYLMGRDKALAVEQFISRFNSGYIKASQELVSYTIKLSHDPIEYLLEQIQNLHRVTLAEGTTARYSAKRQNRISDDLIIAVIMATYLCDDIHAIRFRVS", "experiment": "Alpha proximity assay, purified proteins; negative controls are each protein alone", "data": [{"binder": "B1", "values": [{"measurement": "fold of Alpha signal over negative controls", "result": "> 2", "unit": "fold"}]}]}
